According to the DeepSol protein solubility set:

assay: soluble on expression in E. coli; label from the status in PepcDB or PDB records

Sequence | soluble on expression in E. coli
ICNKYKNINVNMKKNNDDTWTDLVKNSSDINKGVLLPPRRKNLFLKIDESDICKYKRDPKLFKDFIYSSAISEVERLKKVYGEAKTKVVHAMKYSFADIGSIIKGDDMMENNSSDKIGKILGDGVGQNEKRKKWWDMNKYHIWESMLSGYKHAYGNISENDRKMLDIPNNDDEHQFLRWFQEWTENFCTKRNELYENMVTACNSAKCNTSNGSVDKKECTEACKNYSNFILIKKKEYQSLNSQYDMNYKETKAEKKESPEYFKDKCNGECSCLSEYFKDETRWKNPYETLDDTEVKNNCMCK | soluble
MANKLTILASVVAASTAMMATSAQAADTTLDKVTKQGFLTCGVSTGLPGFSNPNSKGEWEGIDVEYCQALAAAVLGDKTKVKYVPLTAKERFTALQSGEIDVLSRNTTWTLHRDTALGLNFVGVNYYDGQGFMVKKDLGISSAKELDGASVCVQSGTTTELNLADYFRNSGMSYKPVVFDTAAQTSKGFDAGRCDVLTTDQSGLYALRLNLKDPSSAAVLPEIISKEPLGPVVRQGDDQWFNIAKWTLAAMVNAEEYGITSKNADEMLKSQDPNIKRILGVDGPKGKGLGIRDDWGYQVVKQVGNYGESFERTVGKGSPLEIARGVNALWNAGGFMYAPPIR | not soluble
MGSDKIHHHHHHMNLSHLKMMITVANLGSLQKTAEQLNRTQSAVSMALKKLEENAGFALFNRDGYRLELTEQGQHFLRQAEEVVRQQQRLQSLATQLKHGAEPLLTLCYDHTCDSKLWVPSIQHIQQQYPTTELHVDGESQMRALKRIDNGSADLALCPWLPLFRQYGDFETLPVAPFELTVVISTALMKEFGRMPQSRQDLLELPMLVPQNLEIGINLDAVLRLPSQQRIRVNEVNTQFELLMAGFGWGIIPKHIALDALEQGKLVEISIPGFVQQVRLEIHLVRSANRTLGPAANAIWESFA | not soluble
MSLATKLRRVRKSPPEGWDLIEPTLEQFEAKMREAETEPHEGKRKTEINWPIFRIHHQRSRYVYDMYYKKAEISRELYEFCLTAKFADAALIAKWKKQGYENLCCVKCVNTRDSNFGTACICRVPKSKLDAERVIECVHCGCHGCSG | not soluble
NKMPVIEVQGIVPTEIIVSPRYYRMGFVGGDLSVPVGQFVFRGEAAFNIDKHFTYKSHAEQEGFQTINWLAGADWYAPGEWMISGQFSMESIFRYRDFISQRQHSTLITLNVSKKFFGSTLQLSDFTYYDLTGKGWFSRFAADYALNDQIHLMAGYDWFSSKGSGIFDRYKDNSELWFKARYSF | not soluble
GLNSVIKPTKYKPVPDEEPNSTDVEETLKRIQNNDPDLEEVNLNNIMNIPVPTLKACAEALKTNTYVKKFSIVGTRSNDPVAFALAEMLKVNNTLKSLNVESNFISGSGILALVEALQSNTSLIELRIDNQSQPLGNNVEMEIANMLEKNTTLLKFGYHFTQQGPRLRASNAMMNNNDLVRKRRL | soluble
KPAAHLIGDPSKQNSLLWRANTDRAFLQDGFSLSNNSLLVPTSGIYFVYSQVVFSGKAYSPKATSSPLYLAHEVQLFSSQYPFHVPLLSSQKMVYPGLQEPWLHSMYHGAAFQLTQGDQLSTHTDGIPHLVLSPSTVFFGAFAL | soluble
MFDSTLNPLWQRYILAVQEEVKPALGCTEPISLALAAAVAAAELEGPVERVEAWVSPNLMKNGLGVTVPGTGMVGLPIAAALGALGGNANAGLEVLKDATAQAIADAKALLAAGKVSVKIQEPCDEILFSRAKVWNGEKWACVTIVGGHTNIVHIETHDGVVFTQQACVAEGEQESPLTVLSRTDAG | not soluble
THGWNFQVSANAAYNKNEVMDLKNGGARIWSGKYFNQEGYAINSIGGYIAEGLFKTEEEVANSATIPGTDTAPGDIKYRDINNDGKIDGEDRVYIGNTMPKWTFGLNLFAEWKGLDATFLFQGAADVQGYLAGPGVVGEMIGAKGKPSYMYRDCWDAETNPNGKFPRAFSSYRQNNSIYNPSSFWIVNSSYLRLKNFQLGYTLPKEWCNMMGISRIRVYYSGQNLLTFTKFDKGFDPESPEGGSSYPQVKTNTFGLNITF | not soluble
AKWPHLKVGGAILVAPAEPRHSDRTESFGPIFEESLGVPAYVVSSRNDPWMSFTQAERLARAWRADVVDLGFAGHINVDSGFGPWPGGVVLRDELARRPVP | not soluble
MSLSKTLLEIRLNSLIDLRMFYFISLYFRLENKESHKSQEIGNLIRVYNRSKREEAESEPLNLYVEDEKGNLLAGLIAETFGNWLEIEYLFVKEELRGQGIGSKLLQQAESEAKNRNCCFAFVNTYQFQAPDFYQKHGYKEVFSLQDYLYIRQRYYYQKNLEGHHHHHH | not soluble
MSEAIIAKKAEQVELIAEKMKAAASIVIVDSRGLTVDQDTVLRRSLRESGVEFKVIKNSILTRAAEKAGLDELKDVFVGPSAVAFSNEDVIAPAKVINDFTKTADALEIKGGAIEGAVSSKEEIQALATLPNREGMLSMLLSVLQAPVRNVAYAVKAVAENKEGAA | not soluble
NPMSVLLGKAEQLNLLYDKYWDDSMRLNPLQATLQGDAYHGDRMPNFLSAEFRKQHHDFIEKWLKKVEMVGADGLDGQAFISYQIFVRDARNSLHAERYPNWMLPINQFYNIANVAVVLGSGNGAQPFNTVQDYDNWAHRSLGIPALFNQAIVNMRLGMKSGVVQPKVLMEKVIPQLDSIIKPTAEETLFWVPIRNMSVTFSKENRQRITAEYKSIIEYRLLPAYRALRNFIATEYLPVCRDSVGLSALPGGASWYAYTVRQSTTTNMTPEQIHQLGLKEVERLQAEIQSVMRQLNFNGSMQKFFSFMQNNEYFTFGSEKEMLAYYRDLRTRVEARVPALFSLVPKAGFEILPVESFRAPSAAAGSYMPPSSNRRHNGVFYANTNDLSSRRTWNAEKLFLHQGIPGYHFQLGLQQELRNLPKFRRLGGETAFIEGWGLYAESLGKELGLYQDAYNYFGYLQDALSRAIRLVVDTGLHTKGWTRAQVVDYIVENSATSPIEAEAEVDRYIAIPGQALAYKVGELKIHQLRQYAQLTLGPMFDLREFHAEILKDGSVPLDILQQKIERWIAVK | not soluble
MIETKRQQERVILLGVELQTTEHFDMSMTELANLAKTAGVKVMASFSQKRERYDSKTFIGSGKLDEIKAIVEADEIDAVIVNNRLTARQNANLEAVLEVKVIDRMQLILDIFAMRARSHEGKLQVHLAQLKYMLPRLVGQGIMLSRQAGGIGSRGPGESQLELNRRSIRHQIADIERQLTQVEKNRQTIRDRRVGSDTFKIGLIGYTNAGKSTIMNLLTDDSHYEANELFATLDATTKQLYLENQFQATLTDTVGFIQDLPTELVAAFKSTLEESKYVDLLLHVIDASDPNHSEQEKVVLNLLKELDMLNIPRLAIYNKVDIAEQFTATAFPNIRISARSKDSKILLRRLIIDQIRDQFVPFRIKVHQDKAYKLYDLNRVALLDHYTFDQEIEDISGYISPKQQWRLDDFYELEHHHHHH | soluble
GYQPEKHAVVKSDRGDGRLLSTYAIVHEMLKDTHPQYAYRSGMSAQEFTQWQDGVRAAMVEIMKFPEIKRQPSPVCVKTEKKEGYILEKWEFYPFPKSVSTFLVLKPEHLKGAVPGVLCIPGSGRTKEGLVGEPGICDKLTEDYNNPKVSMALNMVKEGYVAVAVDNAAAGEASDLECYDKGWNYDYDVVSRFLLELGWSWLGYTSYLDMQVLNWMKAQSYIRKDRIVISGFSLGTEPMMVLGVLDKDIYAFVYNDFLCQTQERAVVMTKPDKENRRPFPNSIRHLIPGYWRYFNFPDVVASLAPRPIIFTEGGLDRDFRLVQSAYAASGKPENAEFHHYPKFADKAVRKDVEHLDEGLDSKTYFEAVNVDPPSHYFKNELVIPWLRKVLK | soluble
LNHETITKRTLLSSLMETNSLNYPNQVKLSERLAELYGASFGIGVSKKGNQHWFNISMNIVNDHYLQDSQVLAEAVDFLKEIIFAPNIQAGQFEAETFQREKENLKAYLESIVED | not soluble
